{"source": "paper PMC5135002", "origin": "cited, not measured here", "molecular_target": "CYLD USP (Homo sapiens) (UniProt Q9NQC7)", "sequence (Q9NQC7 589-953)": "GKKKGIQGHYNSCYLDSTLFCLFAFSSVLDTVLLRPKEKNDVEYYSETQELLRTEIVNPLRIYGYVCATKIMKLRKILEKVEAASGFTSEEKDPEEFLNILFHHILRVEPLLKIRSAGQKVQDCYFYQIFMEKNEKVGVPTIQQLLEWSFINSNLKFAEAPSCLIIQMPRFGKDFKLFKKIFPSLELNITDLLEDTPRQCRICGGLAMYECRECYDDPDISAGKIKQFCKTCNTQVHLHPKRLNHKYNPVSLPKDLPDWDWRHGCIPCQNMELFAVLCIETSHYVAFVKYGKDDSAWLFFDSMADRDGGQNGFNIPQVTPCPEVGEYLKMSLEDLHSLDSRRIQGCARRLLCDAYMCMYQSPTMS", "data": [{"substance": "SPATA2 PUB (from UniProt Q9UM82)", "values": [{"measurement": "Kd", "result": 10, "unit": "nM"}]}]}
